In assay [1] the target is T1, FcRn of neonatal mouse intestine (mouse) (UniProt Q61559).
T1 sequence (looked up): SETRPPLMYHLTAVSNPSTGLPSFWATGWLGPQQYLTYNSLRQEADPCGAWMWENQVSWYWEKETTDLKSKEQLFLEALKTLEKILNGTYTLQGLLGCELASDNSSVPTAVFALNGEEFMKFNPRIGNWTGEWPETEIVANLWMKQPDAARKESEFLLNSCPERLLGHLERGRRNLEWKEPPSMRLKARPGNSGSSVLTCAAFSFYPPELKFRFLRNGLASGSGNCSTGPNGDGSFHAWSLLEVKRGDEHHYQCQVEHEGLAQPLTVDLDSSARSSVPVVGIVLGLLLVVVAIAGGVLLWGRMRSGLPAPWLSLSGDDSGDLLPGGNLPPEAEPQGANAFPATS
T1 sequence (b2m, looked up): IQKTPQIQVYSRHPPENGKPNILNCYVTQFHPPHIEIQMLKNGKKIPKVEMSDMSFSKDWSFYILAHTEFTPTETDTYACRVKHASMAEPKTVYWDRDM
Kind of assay: cell-based or functional assay.

The target of assay [2] is Staphylococcal protein A (Staphylococcal) (UniProt P38507). As to the kind of experiment: direct binding of 125I-Fc-hinge fragments to SpA-agarose, pH 7.5.
Assay [3] has as its target recombinant soluble mouse FcRn (mouse) (UniProt Q61559). Kind of assay: inhibition of 125I-sFcRn binding to murine IgG1-Sepharose; molar ratio of inhibitor/FcRn given as 1/500.
The target is the same in assay [4]. Kind of assay: inhibition of 125I-sFcRn binding to murine IgG1-Sepharose; molar ratio of inhibitor/FcRn given as 1/1000.
The target of assay [5] is complete murine IgG1 molecule (mouse). As to the kind of experiment: 125I-sFcRn on mIgG1-Sepharose, incubation at pH 6.0 (913,948 cpm added).
Assay [6] has the same target. As to the kind of experiment: 125I-sFcRn on mIgG1-Sepharose, incubation at pH 6.0 in presence of 500 ug free mIgG1 (937,985 cpm added).
The target is the same in assay [7]. As to the kind of experiment: 125I-sFcRn on mIgG1-Sepharose, incubation at pH 7.5 (943,936 cpm added).
Assay [8] has the same target. Kind of assay: 125I-sFcRn on mIgG1-Sepharose, incubation at pH 7.5 (931,302 cpm added).
For assay [9] the target is unchanged. Kind of assay: 125I-sFcRn on mIgG1-Sepharose, incubation at pH 6.0 (937,685 cpm added).
Assay [10] has the same target. As to the kind of experiment: 125I-sFcRn on mIgG1-Sepharose, incubation at pH 7.5 (958,958 cpm added).
Assay [11] concerns the target recombinant soluble mouse FcRn (mouse) (UniProt Q61559). Kind of assay: SPR (BIAcore 2000), FcRn coupled to CM5 chip, Fc-hinge 100-300 nM in flow, pH 6.0. (Surface plasmon resonance follows binding to a sensor surface in real time, without labels.)

The term % inhibition denotes the change of the read-out against control, counted positive when it falls. By Kd is commonly meant the free concentration of one partner at which half of the binding sites on the other are occupied at equilibrium, for simple one-to-one binding. By koff is commonly meant a measure of how fast the partners let go of each other. The term kon denotes the rate constant with which the complex forms.

“Fc fragment of murine IgG1 produced by papain digestion (from UniProt P01868 98-324)” registered an Inhibition of transmission (%) of radiolabeled mIgG1 across the intestine of neonatal mice in assay [1] of 62.5%.

Turning to “Fc-hybrid (heterodimer of WT Fc-hinge and HQ-310/HN-433 mutant)”, the Inhibition of transmission (%) of radiolabeled mIgG1 across the intestine of neonatal mice in assay [1] was found to be 21.5%.

Consider H310A and H435A, for which the SpA binding, % of WT Fc-hinge in assay [2] is 9 to 12 % of WT.

Substance HN-433 mutant Fc-hinge fragment came in with an Inhibition of transmission (%) of radiolabeled mIgG1 across the intestine of neonatal mice in [1] of 44.4%.

In the case of HQ-310 mutant Fc-hinge fragment, the % inhibition was 1.6% in assay [3] and 6.1% in assay [4]. In addition, the Inhibition of transmission (%) of radiolabeled mIgG1 across the intestine of neonatal mice in assay [1] is 8.9%.

Regarding “HQ-310/HN-433 mutant Fc-hinge fragment (from UniProt P01868 98-324)”, the % inhibition in assay [3] came out at 0.2%; in assay [4] it was 4%.

For “I253A mutant Fc-hinge fragment (from UniProt P01868 98-324)”, the % inhibition in assay [3] came to 2.3%; in [4], 6.5%.

Substance “bovine serum albumin (from UniProt P02769 25-607)” returned an Inhibition of transmission (%) of radiolabeled mIgG1 across the intestine of neonatal mice in [1] of 8.9%.

On to “recombinant soluble mouse FcRn (from UniProt Q61559 22-290; P01887 21-119) (receptor)”, for which the bound radioactivity in [5] was 271000 cpm; in assay [6], 70700 cpm; in assay [7], 11600 cpm; in assay [8] it was 19600 cpm; in assay [9], 228000 cpm; in [10], 12300 cpm. The bound radioactivity after pH 7.5 wash was determined as 42600 cpm in [5]; 26500 cpm in [6]; 10300 cpm in assay [7]; 16800 cpm in assay [8]; 42700 cpm in assay [9]; 9470 cpm in assay [10].

As to “wild type (WT) Fc-hinge fragment derived from murine IgG1 (from UniProt P01868 98-324)”, in assay [3], the % inhibition came to 18.4%. In addition, in [11], the Kd came to 7.44 nM, the koff was found to be 0.00461 s⁻¹ and the association rate constant (kon) was 620000 M⁻¹ s⁻¹. For the same substance, in [4], the % inhibition is 34.1%.

Values taken from patent US20020098193A1.
